Measurements published in PMC12207588.

Tested on: P02768
Experiment: SEC; BioSep SEC-s2000 column, PBS pH 7.4, 1 mL/min; share of monomer, dimer and trimer from the UV trace at 280 nm

Substance	percent dimer and trimer together (SEC UV trace at 280 nm)	percent HSA dimer (SEC UV trace at 280 nm)	percent HSA trimer (SEC UV trace at 280 nm)
DFO*malHSA (HSA1 conjugated with DFO*maleimide at Cys34)	the other 5% of the UV trace corresponds to the albumin dimer and trimer	–	–
Human serum albumin, lyophilized powder from human serum, A1693 (HSA2)	–	10.7% (6.7 min)	–
Human serum albumin, pharmaceutical solution Albunorm (HSA1)	–	1.1% (7.1 min)	2.9% (5.6 min)
Recombinant human serum albumin, lyophilized, A9731 (HSA4)	–	10.2% (7.2 min)	–
Human serum albumin, lyophilized powder from human serum, A3782 (HSA3)	–	3.4% (7.3 min)	–
